Earlier results, collected in paper PMC2920229.
pKd: −log10 of the molar value.

Target: HIV-1 protease (Human immunodeficiency virus 1) (UniProt O93215)

Question: With HIV-1 protease (from UniProt O93215) as the substance, how does the pKd read?
Answer: > 8.30
